Measurements published in US20200289560A1 (RUPRECHT KARLS UNIVERSIT T HEIDELBERG, published 2020).

Target: T1, human pyruvate kinase M2 (PKM2) (human, UniProt P14618 1-531)
T1 construct: also called tetrameric PK M2; human PK M2
Assay: ultrafiltration (Amicon 30k) of equimolar 2 µM human PK M2 and 2 µM human HMGB1, Western blot of filtrate and retentate
Procedure: Ultrafiltration of the PK M2-HMGB1 complex: equimolar amounts of HMGB1 and PKM2 were mixed in a final volume of 300 μl and filtrated (14000 g, 4° C.) to a final volume of 15 μl in an Amicon Ultra 0.5 ml 30k device (Merck-Millipore, Darmstadt, Germany). The retentate was adjusted to the original volume after centrifugation. Then filtrate and retentate were analyzed by Western Blot. For controls HMGB1 and PKM2 were also analyzed alone. Pure HMGB1 (2 μM) suited as a negative control.

T1 sequence (P14618 whole entry): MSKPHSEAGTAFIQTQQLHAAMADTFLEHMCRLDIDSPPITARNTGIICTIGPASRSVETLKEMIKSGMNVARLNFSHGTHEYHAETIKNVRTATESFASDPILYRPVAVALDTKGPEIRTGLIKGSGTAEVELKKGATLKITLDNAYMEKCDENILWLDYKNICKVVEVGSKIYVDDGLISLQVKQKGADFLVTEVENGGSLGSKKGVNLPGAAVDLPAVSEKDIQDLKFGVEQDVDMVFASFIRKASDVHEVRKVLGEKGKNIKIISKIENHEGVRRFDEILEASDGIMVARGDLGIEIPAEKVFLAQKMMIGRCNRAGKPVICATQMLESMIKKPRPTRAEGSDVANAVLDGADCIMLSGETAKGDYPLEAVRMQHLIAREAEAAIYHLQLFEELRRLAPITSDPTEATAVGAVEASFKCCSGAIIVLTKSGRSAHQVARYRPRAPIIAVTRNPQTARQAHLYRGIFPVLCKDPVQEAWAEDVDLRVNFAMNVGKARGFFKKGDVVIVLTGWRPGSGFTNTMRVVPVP

B1: recombinant human HMGB1 protein (High Mobility Group Box 1 polypeptide) (other)
chain: MGKGDPKKPRGKMSSYAFFVQTCREEHKKKHPDASVNFSEFSKKCSERWKTMSAKEKGKFEDMAKADKARYEREMKTYIPPKGETKKKFKDPNAPKRPPSAFFLFCSEYRPKIKGEHPGLSIGDVAKKLGEMWNNTAADDKQPYEKKAAKLKEKYEKDIAAYRAKGKPDAAKKGVVKAEKSKKKKEEEEDEEDEEDEEEEEDEEDEDEEEDDDDE
notes: also called rhHMGB1; 125I-labelled HMGB1
- binding result: binds
